From patent US20240247080A1, “GLP1/GIP/NPY2 RECEPTOR TRIPLE AGONISTS” (Boehringer Ingelheim International GmbH, priority 2022, published 2024)
Positions count from the first letter of the chain named. Each block holds one binder with its values, some of them ahead of it. Starred links: 1 amine or outer side, 2 acyl side, 3 side chain; linkers in the order of their positions; H or OH if unused. Non-standard residues stand in square brackets, D forms with d. Groups on a side chain read outwards from the residue. No end group written: not given here. *: point of attachment. C20 diacid = O=C(O)CCCCCCCCCCCCCCCCCCC(=O)*; C18 diacid = O=C(O)CCCCCCCCCCCCCCCCC(=O)*; γGlu = O=C(O)[C@H](CCC(=O)[*:2])N[*:1]; εLys = N[C@@H](CCCCN[*:1])C(=O)[*:2]; AEEA = NCCOCCOCC(=O)O; Aib = CC(C)(N)C(=O)O; Ahx = NCCCCCC(=O)O

Legend:
Assay in all cases: cell-based or functional assay
human GLP-1 receptor = human GLP-1 receptor (human, UniProt P43220 24-463)
human GIP receptor = target: T1, human GIP receptor (human, UniProt P48546 22-466)
T1 sequence (looked up): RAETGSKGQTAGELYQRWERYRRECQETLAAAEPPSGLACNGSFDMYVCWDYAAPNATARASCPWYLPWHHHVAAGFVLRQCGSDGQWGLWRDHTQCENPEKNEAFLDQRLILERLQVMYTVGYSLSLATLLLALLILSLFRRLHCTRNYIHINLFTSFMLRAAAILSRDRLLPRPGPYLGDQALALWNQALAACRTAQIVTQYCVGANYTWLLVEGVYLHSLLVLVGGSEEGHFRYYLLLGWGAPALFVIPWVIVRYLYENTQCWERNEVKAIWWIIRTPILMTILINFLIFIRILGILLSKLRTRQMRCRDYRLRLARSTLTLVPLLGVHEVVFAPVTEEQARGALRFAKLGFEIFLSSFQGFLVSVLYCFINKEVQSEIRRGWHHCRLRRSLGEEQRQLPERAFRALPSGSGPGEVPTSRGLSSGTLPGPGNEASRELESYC

[1] = target: T2, human neuropeptide Y2 receptor (human, UniProt P49146 1-381)
T2 sequence (looked up): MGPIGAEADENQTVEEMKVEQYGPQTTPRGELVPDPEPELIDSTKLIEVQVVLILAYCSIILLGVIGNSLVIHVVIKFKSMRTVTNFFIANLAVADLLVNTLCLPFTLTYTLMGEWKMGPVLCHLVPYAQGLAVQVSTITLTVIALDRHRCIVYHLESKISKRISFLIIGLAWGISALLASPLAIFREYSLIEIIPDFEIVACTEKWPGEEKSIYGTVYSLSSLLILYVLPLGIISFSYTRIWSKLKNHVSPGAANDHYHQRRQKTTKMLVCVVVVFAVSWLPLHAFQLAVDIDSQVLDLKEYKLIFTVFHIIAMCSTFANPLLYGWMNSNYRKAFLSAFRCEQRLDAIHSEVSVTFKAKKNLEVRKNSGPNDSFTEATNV

EC50 hGLP1R 0.5% hP (CreLuc) (human GLP-1 receptor): 0.41 nM
EC50 hGLP1R 100% hP (CreLuc) (human GLP-1 receptor): 17.6 nM
EC50 hGIPR 0.5% hP (CreLuc) (human GIP receptor): 0.23 nM
EC50 hGIPR 100% hP (CreLuc) (human GIP receptor): 1.78 nM
EC50 hNPY2R 0.5% hP (CreLuc) [1]: 18.1 nM
EC50 hNPY2R 100% hP (CreLuc) [1]: 74.6 nM
B1: Compound 274 (peptide)
peptide: Y[Aib]EGTFTSDYSI[Aib]LEKQAQ[Aib]EFVEWLIK([AEEA-γGlu-γGlu-γGlu-C18 diacid])GGPSEGASLRHYYNWLTRQRY-NH2
modifications: also: TFA salt

EC50 hGLP1R 0.5% hP (CreLuc) (human GLP-1 receptor): 0.14 nM
EC50 hGLP1R 100% hP (CreLuc) (human GLP-1 receptor): 3.51 nM
EC50 hGIPR 0.5% hP (CreLuc) (human GIP receptor): 0.7 nM
EC50 hGIPR 100% hP (CreLuc) (human GIP receptor): 1.75 nM
EC50 hNPY2R 0.5% hP (CreLuc) [1]: 11.1 nM
EC50 hNPY2R 100% hP (CreLuc) [1]: 56.3 nM
B4: Compound 289 (peptide)
peptide: YXEGTFTSDYSIXLEKQAQXAFVEWLIKGGPSEGASLRHYYNWLTRQRY
modifications: Aib at 2, 13, 20; K28 side chain acylated with C20DA-gGlu-gGlu-gGlu-gGlu-gGlu; C-terminal amide (NH2)

EC50 hGLP1R 0.5% hP (CreLuc) (human GLP-1 receptor): 0.13 nM
EC50 hGLP1R 100% hP (CreLuc) (human GLP-1 receptor): 5.01 nM
EC50 hGIPR 0.5% hP (CreLuc) (human GIP receptor): 0.16 nM
EC50 hGIPR 100% hP (CreLuc) (human GIP receptor): 2.46 nM
EC50 hNPY2R 0.5% hP (CreLuc) [1]: 19.9 nM
EC50 hNPY2R 100% hP (CreLuc) [1]: 70 nM
B5: Compound 292 (peptide)
peptide: B4 peptide
modifications: Aib at 2, 13, 20; K28 side chain acylated with C18DA-gGlu-gGlu-gGlu-gGlu-gGlu; C-terminal amide (NH2)

EC50 hGLP1R 0.5% hP (CreLuc) (human GLP-1 receptor): 0.1 nM
EC50 hGLP1R 100% hP (CreLuc) (human GLP-1 receptor): 2.35 nM
EC50 hGIPR 0.5% hP (CreLuc) (human GIP receptor): 0.18 nM
EC50 hGIPR 100% hP (CreLuc) (human GIP receptor): 0.7 nM
EC50 hNPY2R 0.5% hP (CreLuc) [1]: 14.3 nM
EC50 hNPY2R 100% hP (CreLuc) [1]: 55.3 nM
B7: Compound 291 (peptide)
peptide: Y[Aib]EGTFTSDYSI[Aib]LEKQAQ[Aib]AFVEWLIK([Glu-Glu-Glu-Glu-C18 diacid])GGPSEGASLRHYYNWLTRQRY-NH2
modifications: also: TFA salt

EC50 hGLP1R 0.5% hP (CreLuc) (human GLP-1 receptor): 0.72 nM
EC50 hGLP1R 100% hP (CreLuc) (human GLP-1 receptor): 13.4 nM
EC50 hGIPR 0.5% hP (CreLuc) (human GIP receptor): 0.71 nM
EC50 hGIPR 100% hP (CreLuc) (human GIP receptor): 1.76 nM
EC50 hNPY2R 0.5% hP (CreLuc) [1]: 32.4 nM
EC50 hNPY2R 100% hP (CreLuc) [1]: 103 nM
B9: Compound 279 (peptide)
peptide: Y[Aib]EGTFTSDYSI[Aib]LEKQAQ[Aib]EFVEWLIK([Ahx-γGlu-γGlu-γGlu-γGlu-γGlu-γGlu-C18 diacid])GGPSEGASLRHYYNWLTRQRY-NH2
modifications: also: TFA salt

Further lines, the binder ahead of its results:

B2: Compound 290 (peptide)
peptide: Y[Aib]EGTFTSDYSI[Aib]LEKQAQ[Aib]AFVEWLIK([εLys-γGlu-Glu-γGlu-γGlu-γGlu-C20 diacid])GGPSEGASLRHYYNWLTRQRY-NH2
modifications: also: TFA salt
EC50 hGLP1R 0.5% hP (CreLuc) (human GLP-1 receptor): 0.13 nM
EC50 hGLP1R 100% hP (CreLuc) (human GLP-1 receptor): 2.87 nM
EC50 hGIPR 0.5% hP (CreLuc) (human GIP receptor): 0.89 nM
EC50 hGIPR 100% hP (CreLuc) (human GIP receptor): 1.18 nM
EC50 hNPY2R 0.5% hP (CreLuc) [1]: 9.68 nM
EC50 hNPY2R 100% hP (CreLuc) [1]: 46.3 nM

B3: Compound 275 (peptide)
peptide: B4 peptide with A21E
modifications: Aib at 2, 13, 20; K28 side chain acylated with C20DA-gGlu-gGlu-gGlu-gGlu-gGlu-gGlu-eLys; C-terminal amide (NH2)
EC50 hGLP1R 0.5% hP (CreLuc) (human GLP-1 receptor): 0.5 nM
EC50 hGLP1R 100% hP (CreLuc) (human GLP-1 receptor): 21.7 nM
EC50 hGIPR 0.5% hP (CreLuc) (human GIP receptor): 0.27 nM
EC50 hGIPR 100% hP (CreLuc) (human GIP receptor): 1.75 nM
EC50 hNPY2R 0.5% hP (CreLuc) [1]: 19.9 nM
EC50 hNPY2R 100% hP (CreLuc) [1]: 60 nM

B6: Compound 277 (peptide)
peptide: B4 peptide with Q47X
modifications: Aib at 2, 13, 20; bHGln (beta-homo-L-glutamine) at 47; K28 side chain acylated with C20DA-gGlu-gGlu-gGlu-gGlu-gGlu-gGlu-eLys; C-terminal amide (NH2)
EC50 hGLP1R 0.5% hP (CreLuc) (human GLP-1 receptor): 0.19 nM
EC50 hGLP1R 100% hP (CreLuc) (human GLP-1 receptor): 1.29 nM
EC50 hGIPR 0.5% hP (CreLuc) (human GIP receptor): 0.11 nM
EC50 hGIPR 100% hP (CreLuc) (human GIP receptor): 0.68 nM
EC50 hNPY2R 0.5% hP (CreLuc) [1]: > 99.9 nM
EC50 hNPY2R 100% hP (CreLuc) [1]: 1120 nM

B8: Compound 282 (peptide)
peptide: Y[Aib]EGTFTSDYSI[Aib]LEKQAQ[Aib]EFVEWLIK([AEEA-AEEA-γGlu-C18 diacid])GGPSEGASLRHYYNWLTRQRY-NH2
modifications: also: TFA salt
EC50 hGLP1R 0.5% hP (CreLuc) (human GLP-1 receptor): 0.51 nM
EC50 hGLP1R 100% hP (CreLuc) (human GLP-1 receptor): 24.6 nM
EC50 hGIPR 0.5% hP (CreLuc) (human GIP receptor): 0.17 nM
EC50 hGIPR 100% hP (CreLuc) (human GIP receptor): 1.03 nM
EC50 hNPY2R 0.5% hP (CreLuc) [1]: 17.3 nM
EC50 hNPY2R 100% hP (CreLuc) [1]: 71.4 nM
